This data set in a line: protein stability index of a GFP-peptide fusion (GPS, HEK-293T) (PSI 1-6); higher = more stable.
Where [1] appears, read: treatment: DMSO, c terminus: a fixed tail appended.
Where [2] appears, read: treatment: MLN4924 1 uM, 8 h, c terminus: a fixed tail appended.
The mark [3] stands for this setting: treatment: DMSO, c terminus: native.
[4] abbreviates: treatment: MLN4924 1 uM, 8 h, c terminus: native.

± gives the standard deviation.
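Also: 24-mer peptide tiles fused after GFP, lentivirally expressed, FACS-sorted into six equal bins by GFP/DsRed ratio, decoded by Illumina sequencing, PSI is the read-weighted mean bin number.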

The sequence RRHLQFWKSHLRNVQRPLLQAPFL [RHOBTB2] gave a protein stability index under setting [1] of 2.29 ± 0.38 and a protein stability index under setting [2] of 2.21 ± 0.3. For HSPFSSESRALSTSSNLGSQYQCE [TBX5], the protein stability index reads like this: under setting [1], 4.4 ± 0.35; under setting [2], 4.53 ± 0.22. The like results for RDAIEALCRRLNTLNKCAVMKLEI [DLC1] were, in that order, 2.13 ± 0.49 and 2.54 ± 0.17. The like results for RIRSYLREVSSYPSTVGAEAQEEF [DFFB] were, in that order, 3.33 ± 0.16 and 3.58 ± 0.29. In turn, ISCFNNAPPAKLACPVCSKMVPRY [FAN1] showed a protein stability index under setting [1] of 2.24 ± 0.19 and a protein stability index under setting [2] of 2.67 ± 0.26.

NRGNSAGGLQHRVTAKTAPDVLRT [PTPRD] came in with a protein stability index under setting [1] of 3.98 ± 0.47 and a protein stability index under setting [2] of 3.81 ± 0.31.

As to AMRAGVLADDHLIEVNGENVEDAS [PDZK1], the protein stability index runs as follows: under setting [1], 5.41 ± 0.23; under setting [2], 5.3 ± 0.11. As for RTRRRLSRNRDPGRLILSTIRLRP [PWWP2B], the protein stability index runs as follows: under setting [1], 4.41 ± 0.45; under setting [2], 4.32 ± 0.21. For AQGFAADVRLMFSNCYKYNPPDHE [BRD3], the protein stability index was 2.99 ± 0.31 under setting [1] and 2.8 ± 0.39 under setting [2].

In the case of LESSDLPVALLLAQHKDRSTQLEM [MNAT1], the protein stability index was determined as 3.47 ± 0.23 under setting [1] and 3.53 ± 0.3 under setting [2]. The like results for QTRNGLGKDHEILRRRIENGAKEL [FUT8] were, in that order, 4.34 ± 0.33 and 4.33 ± 0.1. For the sequence EECPAHLLEDPLCADVILVLQERV [RHOBTB2], the protein stability index under setting [1] was 3.4 ± 0.42 and the protein stability index under setting [2] came to 3.47 ± 0.52. The like results for DGENLKNEEETPSCMASLWTAPLV [CDC25A] were, in that order, 4.484 ± 0.031 and 4.5 ± 0.19.

Regarding WFQRQYLSTPDSQSLRCDLIRYIC [INTS3], the protein stability index is, setting by setting: under setting [1], 2.25 ± 0.35; under setting [2], 2.28 ± 0.44. The like results for GMASFRFPETTFISVTAYQNPQIT [TBX6] were, in that order, 2.34 ± 0.62 and 2.29 ± 0.11. The like results for ARFAEKEELMLVHSLEYIDLMETT [HDAC6] were, in that order, 2.66 ± 0.17 and 2.75 ± 0.38. The like results for LTKAATSGVGIDGEVLSYLELAQF [RHOBTB1] were, in that order, 2.44 ± 0.18 and 2.47 ± 0.43. In the case of FAALRASLVAPLLLELAGEVTDTG [MYORG], the protein stability index amounted to 2.13 ± 0.39 under setting [1] and 2.36 ± 0.4 under setting [2].

For SFFLQIYLIMIFLGLYINFRHLYK [HACD3], the protein stability index by setting is: under setting [1], 2.79 ± 0.2; under setting [2], 2.52 ± 0.041. Sequence RDSLSHLVPALRLPGRKLVSSAVS [INTS4] had a protein stability index under setting [1] of 3.04 ± 0.12 and a protein stability index under setting [2] of 3.21 ± 0.24. On to DCDTSSICEDSFDGRSLSKLNLCE [SCARA5], for which the protein stability index is, setting by setting: under setting [1], 4.84 ± 0.16; under setting [2], 5.05 ± 0.12. CRVFWWLGDRDRSRAALVCRKWNQ [FBXO39]: the protein stability index under setting [1] amounted to 2.46 ± 0.87 and the protein stability index under setting [2] was determined as 2.06 ± 0.41.

As to QGDSADETTAHKTEEENSDSDSD [CMTM3], the protein stability index runs as follows: under setting [3], 5.6 ± 0.2; under setting [4], 5.7 ± 0.23. The like results for QSLLGYTPEELHAMLDVKPDADE [ETS1] were, in that order, 5.2 ± 0.36 and 5.18 ± 0.32.

For the sequence MSDLLSVFLHLLLLFKLVAPVTFR [CPN1], the protein stability index worked out at 3.09 ± 0.26 under setting [1] and 3.33 ± 0.17 under setting [2]. With IQYLTENIWASQSVLSACDNLSDL [IQUB], the protein stability index by setting is: under setting [1], 2.49 ± 0.34; under setting [2], 2.49 ± 0.3. The sequence GAYIGEGRVEVLKNGEWGTVCDDK [LOXL2] returned a protein stability index under setting [1] of 4.99 ± 0.36.

Sequence FVVEYHGDLIEITDAKKREALYAQ [KMT5A] yielded a protein stability index under setting [1] of 2.65 ± 0.34 and a protein stability index under setting [2] of 2.73 ± 0.41. In the case of EKEKKNRKGKDKENGSVSSSETPP [EIF5], the protein stability index is 5.58 ± 0.24 under setting [1] and 5.65 ± 0.13 under setting [2]. Regarding RAPHKESTLPRSGSSGGQQPSGMK [CHCHD6], the protein stability index is 4.96 ± 0.58 under setting [1] and 5.05 ± 0.46 under setting [2]. The like results for AELAGVIKRLWKDSGVQACFNRSR [GNAI1] were, in that order, 2.62 ± 0.23 and 2.42 ± 0.72. The like results for NESHSIKAILKNISVLAFSVCFIF [SLC29A1] were, in that order, 2.79 ± 0.61 and 2.54 ± 0.4. The like results for VVENAEKILGYLNTNVLSRDLIPP [SLC6A17] were, in that order, 2.82 ± 0.15 and 2.84 ± 0.38.

Turning to RMLFWACSTNKPEGYRVSQALREN [FAF2], the protein stability index is, setting by setting: under setting [1], 2.27 ± 0.16; under setting [2], 2.46 ± 0.18.

Turning to IDSSSSWWTNWVIPAISAVAVALM [CYB5A], the protein stability index is, setting by setting: under setting [1], 2.64 ± 0.14; under setting [2], 2.69 ± 0.15. The like results for LSEVLAQPQGALAPPNCESDSKTG [DNAAF3] were, in that order, 5.37 ± 0.14 and 5.52 ± 0.096. The like results for YNVYSTFQSHEPEFDYLKSLEIEE [PPP2R2B] were, in that order, 3.86 ± 0.2 and 3.92 ± 0.26. The like results for CLTCGKSFRQGMHLTRHQRTHTGE [ZNF263] were, in that order, 4.03 ± 0.23 and 3.98 ± 0.46. Take AIVFTDGRAQDDVSEWASKAKANG [MATN2]: the protein stability index by setting is: under setting [1], 3.92 ± 0.29; under setting [2], 4.26 ± 0.34. The like results for IEAEGATAPLTELLHSRNEGVATY [CTNNB1] were, in that order, 4.32 ± 0.27 and 4.31 ± 0.25. Regarding GRRAATALLWLSCSIALLRALATS [GNAS], the protein stability index is, setting by setting: under setting [1], 2.26 ± 0.37; under setting [2], 2.02 ± 0.24. The like results for SQLAGQVNVEMDAAPGVDLTRVLA [KRT15] were, in that order, 4 ± 0.18 and 3.94 ± 0.057. With ECVASNNVGEISVSTRLTVLREDQ [PTPRD], the protein stability index reads like this: under setting [1], 4.63 ± 0.19; under setting [2], 4.54 ± 0.15. In the case of SLVYYGLTLSAGDLGGSIYANLAL [SLC22A15], the protein stability index by setting is: under setting [1], 3.02 ± 0.6; under setting [2], 2.91 ± 0.45. The like results for LFDFDLEVKPVLEVLVGKTIEQSL [RSPH3] were, in that order, 2.48 ± 0.42 and 2.42 ± 0.039.

On to KVHYLFPDGKEMAEEYDEKTSELL [DPCD], for which the protein stability index reads like this: under setting [1], 4.32 ± 0.25; under setting [2], 4.42 ± 0.12. On to WGPWGPWGDCSRTCGGGVQFSSRD [ADAMTS4], for which the protein stability index stood at 2.46 ± 0.36 under setting [1] and 2.16 ± 0.14 under setting [2]. For TYRSLLESEDCKLPCNPCATTNAS [KRT34], the protein stability index stood at 3.9 ± 0.25 under setting [1] and 4.09 ± 0.2 under setting [2].

In the case of AKGDNVYEFHLEFLDLVKPEPVYK [HACD3], the protein stability index under setting [1] was 2.41 ± 0.09 and the protein stability index under setting [2] came out at 2.54 ± 0.49. The like results for LVNMGISVVSYTLKDIHDDQDYLH [FLOT1] were, in that order, 2.11 ± 0.24 and 2.22 ± 0.31. Take KGLSVEFALLADKAAQQGKQEEND [SNX8]: the protein stability index by setting is: under setting [1], 5.237 ± 0.033; under setting [2], 5.13 ± 0.21. HGDPIPKVEFTEEEIKTWGTVFQE [TPH1]: the protein stability index reads like this: under setting [1], 4.87 ± 0.2; under setting [2], 4.86 ± 0.16.

Regarding VKLNVGGSLHYTTLRTLTGQDTML [KCTD13], the protein stability index reads like this: under setting [1], 2.45 ± 0.47; under setting [2], 2.27 ± 0.28. EGENYQKGERGEDSSEEKHLEEPG [CHGB]: the protein stability index runs as follows: under setting [1], 5.63 ± 0.39; under setting [2], 5.57 ± 0.32. The like results for SITEMFGEFRTGKTQICHTLAVTC [RAD51] were, in that order, 2.59 ± 0.33 and 2.05 ± 0.48. The like results for YRSPEPDPYLSYRWKRRRSYSREH [CLK3] were, in that order, 3.55 ± 0.33 and 3.71 ± 0.12.

As to KAILDAEPGPRPALQPSPSIRLPL [TBC1D10A], the protein stability index is 4.27 ± 0.15 under setting [1] and 4.34 ± 0.059 under setting [2].

With QALEQFAAAAAHSTPVRREVTDKE [EPB41L3], the protein stability index came out at 5.02 ± 0.22 under setting [1] and 4.89 ± 0.41 under setting [2]. The like results for VDRTHALMKKIGQCPMRVQKEVAG [CRYL1] were, in that order, 3.45 ± 0.36 and 3.65 ± 0.35. Take ELSPPLSPASHVDVDLTIHGRHID [FOXJ1]: the protein stability index reads like this: under setting [1], 4.82 ± 0.18; under setting [2], 4.84 ± 0.064.

With PEHGDRVAELFCRRCRRCVCALCP [TRIM14], the protein stability index by setting is: under setting [1], 3.29 ± 0.55; under setting [2], 3.5 ± 0.1. For the sequence KETLAVNYEKEEEFLTNELSRKLM [CCDC6], the protein stability index by setting is: under setting [1], 4.05 ± 0.25; under setting [2], 4.44 ± 0.27. Regarding EDPYMMGRIACANVLSDLYAMGIT [SEPHS2], the protein stability index was 2.39 ± 0.19 under setting [1] and 2.36 ± 0.18 under setting [2]. The like results for SNADQLMENIGAIQVLPKLSSSII [KCNAB2] were, in that order, 3.21 ± 0.38 and 3.23 ± 0.29.

With LICFCRESRYMDQWVPVINLPER [GADD45A], the protein stability index under setting [3] worked out at 2.98 ± 1.1 and the protein stability index under setting [4] turned out to be 2.87 ± 0.84. For FLVLQSLLERQVEMTPEKFSVLME [FANCE], the protein stability index is 2.13 ± 0.39 under setting [1] and 2.11 ± 0.3 under setting [2]. The like results for ASSVHLKSESSLPHQTSKMENLPG were, in that order, 4.8 ± 0.26 and 4.85 ± 0.49. The like results for WCLHVNNWLQVSFTAKHANKVKVL [FSD1] were, in that order, 3.04 ± 0.73 and 2.93 ± 0.5. On to QERSRVLNQVADLLEQSLEEFAQA [ALDH8A1], for which the protein stability index runs as follows: under setting [1], 3.94 ± 0.28; under setting [2], 4.26 ± 0.19. The like results for TFTEHPMKYTSEKFLEICKLSGFM [TPRG1] were, in that order, 2.35 ± 0.48 and 2.22 ± 0.5.

For IKAVTHQVKFGQQNPRQVAQSEAE [ZC3H15], the protein stability index runs as follows: under setting [1], 4.86 ± 0.2; under setting [2], 4.9 ± 0.23.

Regarding YRAITSAYYRGAVGALLVYDIAKH [RAB11A], the protein stability index under setting [1] turned out to be 2.43 ± 0.51 and the protein stability index under setting [2] is 2.16 ± 0.33.

For the origin of these results see the supplement of paper PMC10567573.
